Assay results: patent US20220306758A1

Molecular target: cynomolgus CD3 on mfCD3 engineered Jurkat cells (cynomolgus CD3ε and CD3δ in place of the human versions) (cynomolgus) (UniProt Q95LI5)
Experiment: flow cytometry on mfCD3 engineered Jurkat cells, median EC50, n=2

Sequence of cynomolgus CD3 on mfCD3 engineered Jurkat cells (cynomolgus CD3ε and CD3δ in place of the human versions) (cynomolgus) (Q95LI5 22-198, stated change not applied, chain 1 of 2): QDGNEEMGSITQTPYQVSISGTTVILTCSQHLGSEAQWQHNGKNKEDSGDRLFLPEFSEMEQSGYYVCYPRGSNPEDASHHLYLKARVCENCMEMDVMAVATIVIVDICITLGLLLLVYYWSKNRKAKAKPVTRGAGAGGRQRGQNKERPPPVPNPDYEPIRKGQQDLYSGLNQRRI
Sequence of cynomolgus CD3 on mfCD3 engineered Jurkat cells (cynomolgus CD3ε and CD3δ in place of the human versions) (cynomolgus) (Q95LI8 22-171, stated change not applied, chain 2 of 2, further chain): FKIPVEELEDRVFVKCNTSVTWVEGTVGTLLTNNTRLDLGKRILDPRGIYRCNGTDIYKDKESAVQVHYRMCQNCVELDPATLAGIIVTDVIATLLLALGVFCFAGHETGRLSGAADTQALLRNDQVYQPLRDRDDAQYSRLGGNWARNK
Sequence of REGN5458 (bsAb25441D), anti-BCMA x anti-CD3 bispecific antibody (VH): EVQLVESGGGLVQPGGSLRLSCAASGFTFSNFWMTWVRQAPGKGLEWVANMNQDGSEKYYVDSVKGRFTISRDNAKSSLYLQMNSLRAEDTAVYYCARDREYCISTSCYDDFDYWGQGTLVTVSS
Sequence of REGN5458 (bsAb25441D), anti-BCMA x anti-CD3 bispecific antibody (VH): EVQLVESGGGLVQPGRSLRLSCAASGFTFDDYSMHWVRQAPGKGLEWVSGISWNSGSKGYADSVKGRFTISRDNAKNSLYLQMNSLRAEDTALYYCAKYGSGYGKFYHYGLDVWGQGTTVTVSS
Sequence of REGN5458 (bsAb25441D), anti-BCMA x anti-CD3 bispecific antibody (VL): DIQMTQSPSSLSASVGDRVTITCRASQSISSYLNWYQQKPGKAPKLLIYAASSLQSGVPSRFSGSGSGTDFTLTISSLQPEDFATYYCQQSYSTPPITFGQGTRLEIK

Q: For “REGN5458 (bsAb25441D), anti-BCMA x anti-CD3 bispecific antibody”, which EC50 is on record?
A: Its EC50 is 15.1 nM.
